Laboratory results as given in the supplement of paper PMC10065799, “High-throughput profiling of sequence recognition by tyrosine kinases and SH2 domains using bacterial peptide display” (eLife, 2023).

Legend:
[1] = target: Hck (UniProt P08631); test: phosphorylation enrichment, bacterial display (enrichment ratio); higher = better substrate or ligand; peptides without Tyr show the background
[2] = system: Fer (mouse); test: as above
[3] = target: FGFR1 (UniProt P11362); test: as above
[4] = target: Jak2 (UniProt O60674); test: as above
[5] = system: AncSZ; test: as above
[6] = target: FGFR3 (UniProt P22607); test: as above
[7] = target: MERTK (UniProt Q12866); test: as above
[8] = system: c-Abl (mouse); test: as above
[9] = system: c-Src; test: as above
[10] = target: Fes (UniProt P07332); test: as above
[11] = target: EPHB1 (UniProt P54762); test: as above
[12] = target: Fyn (UniProt P06241); test: as above
[13] = target: EPHB2 (UniProt P29323); test: as above
[14] = target: c-Src SH2; test: SH2 binding enrichment of the phosphorylated peptide, bacterial display (enrichment ratio); higher = better substrate or ligand; peptides without Tyr show the background
[15] = target: Grb2 SH2 (UniProt P62993); test: as above
[16] = target: SHP2-C SH2; test: as above
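Wherever SH2 binding enrichment of the phosphorylated peptide, bacterial display is given: peptide library displayed on the E. coli surface as eCPX fusions, selected cells deep-sequenced, score is each peptide's frequency after selection divided by its frequency in the input.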
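Wherever phosphorylation enrichment, bacterial display is given: 11-residue human phosphosite peptides and single-mutation variants displayed on the E. coli surface, counted by deep sequencing, each peptide's frequency after selection divided by its frequency in the unselected input library; frequency after pTyr selection over input frequency; kinase dosed for 20-30% of maximal phosphorylation in three min.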

Chain of Jak2 (O60674 whole entry, looked up): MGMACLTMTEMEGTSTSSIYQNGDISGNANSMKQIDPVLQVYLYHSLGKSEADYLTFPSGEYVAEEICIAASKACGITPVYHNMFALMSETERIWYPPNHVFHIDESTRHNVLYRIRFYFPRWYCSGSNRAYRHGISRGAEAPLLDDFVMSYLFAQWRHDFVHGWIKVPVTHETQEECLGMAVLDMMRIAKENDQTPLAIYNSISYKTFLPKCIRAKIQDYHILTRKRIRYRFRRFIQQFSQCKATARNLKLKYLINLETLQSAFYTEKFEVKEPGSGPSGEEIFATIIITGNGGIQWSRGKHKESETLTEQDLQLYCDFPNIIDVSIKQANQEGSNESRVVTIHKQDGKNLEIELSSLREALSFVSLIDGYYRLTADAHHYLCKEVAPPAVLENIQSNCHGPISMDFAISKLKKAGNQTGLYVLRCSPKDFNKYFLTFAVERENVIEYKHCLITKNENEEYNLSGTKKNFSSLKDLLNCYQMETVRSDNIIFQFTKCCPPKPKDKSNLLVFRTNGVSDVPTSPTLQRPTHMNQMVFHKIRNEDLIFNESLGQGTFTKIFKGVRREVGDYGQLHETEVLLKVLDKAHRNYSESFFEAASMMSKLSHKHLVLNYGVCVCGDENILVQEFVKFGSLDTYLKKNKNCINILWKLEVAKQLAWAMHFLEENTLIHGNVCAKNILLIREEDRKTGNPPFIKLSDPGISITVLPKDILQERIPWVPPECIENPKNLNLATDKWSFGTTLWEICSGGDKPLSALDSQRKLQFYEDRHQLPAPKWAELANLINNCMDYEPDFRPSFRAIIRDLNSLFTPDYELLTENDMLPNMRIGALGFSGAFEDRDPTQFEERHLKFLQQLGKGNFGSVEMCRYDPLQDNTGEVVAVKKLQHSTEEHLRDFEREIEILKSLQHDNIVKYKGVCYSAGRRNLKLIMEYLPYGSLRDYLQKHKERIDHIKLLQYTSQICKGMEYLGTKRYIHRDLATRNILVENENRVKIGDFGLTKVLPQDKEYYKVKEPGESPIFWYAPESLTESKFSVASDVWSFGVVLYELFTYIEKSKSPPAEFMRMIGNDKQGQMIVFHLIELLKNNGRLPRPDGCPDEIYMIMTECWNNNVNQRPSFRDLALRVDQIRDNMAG
Chain of EPHB2 (P29323 whole entry, looked up): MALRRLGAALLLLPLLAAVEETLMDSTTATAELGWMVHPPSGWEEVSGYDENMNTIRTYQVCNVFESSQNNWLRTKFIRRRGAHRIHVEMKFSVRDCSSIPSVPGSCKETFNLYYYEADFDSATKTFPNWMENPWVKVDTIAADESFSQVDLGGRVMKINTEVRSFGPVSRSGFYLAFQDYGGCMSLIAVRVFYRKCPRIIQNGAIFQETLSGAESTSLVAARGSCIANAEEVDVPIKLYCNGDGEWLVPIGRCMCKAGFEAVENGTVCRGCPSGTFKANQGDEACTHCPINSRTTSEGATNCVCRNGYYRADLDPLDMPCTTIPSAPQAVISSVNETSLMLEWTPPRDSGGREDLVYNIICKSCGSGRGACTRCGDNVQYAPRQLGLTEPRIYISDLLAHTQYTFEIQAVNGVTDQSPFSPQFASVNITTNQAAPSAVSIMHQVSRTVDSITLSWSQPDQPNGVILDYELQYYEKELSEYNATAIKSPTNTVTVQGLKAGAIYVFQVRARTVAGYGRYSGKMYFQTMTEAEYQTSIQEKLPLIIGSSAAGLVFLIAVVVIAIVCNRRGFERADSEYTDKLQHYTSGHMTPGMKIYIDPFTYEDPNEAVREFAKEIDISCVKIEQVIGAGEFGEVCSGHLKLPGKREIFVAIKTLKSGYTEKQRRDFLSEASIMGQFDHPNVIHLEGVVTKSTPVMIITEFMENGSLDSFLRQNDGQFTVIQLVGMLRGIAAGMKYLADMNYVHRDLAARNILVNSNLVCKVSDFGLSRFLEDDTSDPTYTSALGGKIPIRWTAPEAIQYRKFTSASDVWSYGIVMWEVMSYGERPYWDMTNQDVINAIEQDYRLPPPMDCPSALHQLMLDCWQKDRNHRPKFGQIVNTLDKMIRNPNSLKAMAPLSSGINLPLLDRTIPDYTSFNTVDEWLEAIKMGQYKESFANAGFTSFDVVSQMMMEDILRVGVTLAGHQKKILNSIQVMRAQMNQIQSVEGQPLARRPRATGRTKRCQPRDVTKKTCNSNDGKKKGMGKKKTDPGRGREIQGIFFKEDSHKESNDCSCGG
Chain of FGFR3 (P22607 whole entry, looked up): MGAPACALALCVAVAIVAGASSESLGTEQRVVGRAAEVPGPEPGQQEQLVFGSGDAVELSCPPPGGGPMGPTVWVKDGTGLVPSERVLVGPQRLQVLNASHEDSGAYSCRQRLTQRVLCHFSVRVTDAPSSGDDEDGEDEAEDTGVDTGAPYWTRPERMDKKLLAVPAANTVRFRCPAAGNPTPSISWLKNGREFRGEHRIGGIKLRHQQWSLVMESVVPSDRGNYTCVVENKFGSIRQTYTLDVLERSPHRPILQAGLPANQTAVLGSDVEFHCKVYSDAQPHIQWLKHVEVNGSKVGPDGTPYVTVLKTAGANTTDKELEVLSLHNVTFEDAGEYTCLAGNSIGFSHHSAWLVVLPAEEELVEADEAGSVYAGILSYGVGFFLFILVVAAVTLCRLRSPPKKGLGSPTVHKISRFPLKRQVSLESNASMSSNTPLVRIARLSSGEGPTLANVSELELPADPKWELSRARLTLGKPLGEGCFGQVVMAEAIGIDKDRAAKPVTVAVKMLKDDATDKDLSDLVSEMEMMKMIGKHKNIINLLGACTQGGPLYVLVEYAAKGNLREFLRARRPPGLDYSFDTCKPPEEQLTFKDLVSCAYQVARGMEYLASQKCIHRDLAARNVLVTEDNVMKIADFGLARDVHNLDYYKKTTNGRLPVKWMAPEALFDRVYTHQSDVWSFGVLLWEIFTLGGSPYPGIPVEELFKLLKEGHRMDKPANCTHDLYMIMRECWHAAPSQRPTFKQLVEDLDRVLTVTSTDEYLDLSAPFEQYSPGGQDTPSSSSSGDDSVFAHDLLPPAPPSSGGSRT
Chain of Hck (P08631 whole entry, looked up): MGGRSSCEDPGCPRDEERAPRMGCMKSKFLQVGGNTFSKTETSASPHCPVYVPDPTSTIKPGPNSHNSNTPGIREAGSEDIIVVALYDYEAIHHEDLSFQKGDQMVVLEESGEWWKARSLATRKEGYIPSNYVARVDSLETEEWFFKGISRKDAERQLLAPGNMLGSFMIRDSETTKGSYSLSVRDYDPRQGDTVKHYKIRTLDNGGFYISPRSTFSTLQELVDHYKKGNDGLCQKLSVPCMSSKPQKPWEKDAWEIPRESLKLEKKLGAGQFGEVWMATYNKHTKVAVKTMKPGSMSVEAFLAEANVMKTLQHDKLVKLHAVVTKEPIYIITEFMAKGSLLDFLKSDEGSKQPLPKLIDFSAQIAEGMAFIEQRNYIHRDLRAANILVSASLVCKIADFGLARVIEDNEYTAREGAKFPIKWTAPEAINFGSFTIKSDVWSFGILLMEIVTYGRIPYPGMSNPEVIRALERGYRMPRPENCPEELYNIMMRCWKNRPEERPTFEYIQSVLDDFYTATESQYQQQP
Chain of Fes (P07332 whole entry, looked up): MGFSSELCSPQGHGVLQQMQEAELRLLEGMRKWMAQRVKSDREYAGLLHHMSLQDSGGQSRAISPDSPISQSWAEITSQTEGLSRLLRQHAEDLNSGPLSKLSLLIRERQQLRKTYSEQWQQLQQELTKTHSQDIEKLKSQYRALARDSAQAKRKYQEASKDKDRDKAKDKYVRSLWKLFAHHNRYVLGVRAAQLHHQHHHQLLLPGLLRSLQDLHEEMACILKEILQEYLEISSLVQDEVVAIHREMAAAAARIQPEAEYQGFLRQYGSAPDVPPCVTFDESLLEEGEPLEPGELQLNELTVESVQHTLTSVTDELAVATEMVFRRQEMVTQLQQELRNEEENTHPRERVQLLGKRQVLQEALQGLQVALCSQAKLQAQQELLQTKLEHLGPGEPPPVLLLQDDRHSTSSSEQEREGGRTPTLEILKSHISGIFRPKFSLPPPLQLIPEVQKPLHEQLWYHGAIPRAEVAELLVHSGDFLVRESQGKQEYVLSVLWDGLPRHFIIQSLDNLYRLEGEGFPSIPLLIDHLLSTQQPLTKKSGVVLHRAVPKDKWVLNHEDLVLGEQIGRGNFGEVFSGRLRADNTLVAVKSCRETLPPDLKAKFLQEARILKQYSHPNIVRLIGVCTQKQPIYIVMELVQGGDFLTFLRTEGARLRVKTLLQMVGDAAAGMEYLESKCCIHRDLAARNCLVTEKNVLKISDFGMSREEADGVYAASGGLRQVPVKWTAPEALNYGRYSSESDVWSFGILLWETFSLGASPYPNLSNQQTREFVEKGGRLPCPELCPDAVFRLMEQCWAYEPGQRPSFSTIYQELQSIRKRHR
Chain of Fyn (P06241 whole entry, looked up): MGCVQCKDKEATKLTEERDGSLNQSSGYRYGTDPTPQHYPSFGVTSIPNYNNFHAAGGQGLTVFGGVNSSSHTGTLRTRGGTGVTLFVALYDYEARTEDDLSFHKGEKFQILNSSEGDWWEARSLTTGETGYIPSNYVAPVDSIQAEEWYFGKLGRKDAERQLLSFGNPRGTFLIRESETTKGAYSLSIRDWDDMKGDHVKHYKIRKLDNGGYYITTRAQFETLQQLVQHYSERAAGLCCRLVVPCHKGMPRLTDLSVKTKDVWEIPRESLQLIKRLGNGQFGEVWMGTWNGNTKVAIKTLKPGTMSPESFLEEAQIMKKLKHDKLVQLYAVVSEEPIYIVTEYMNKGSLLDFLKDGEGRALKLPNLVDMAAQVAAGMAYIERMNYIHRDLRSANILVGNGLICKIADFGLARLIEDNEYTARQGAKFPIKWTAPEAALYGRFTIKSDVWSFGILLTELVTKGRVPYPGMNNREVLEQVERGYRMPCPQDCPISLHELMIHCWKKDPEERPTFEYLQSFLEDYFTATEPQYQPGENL

Sequence | phosphorylation enrichment [1] | phosphorylation enrichment [2] | phosphorylation enrichment [3] | phosphorylation enrichment [4] | phosphorylation enrichment [5] | phosphorylation enrichment [6] | phosphorylation enrichment [7] | phosphorylation enrichment [8] | phosphorylation enrichment [9] | phosphorylation enrichment [10] | phosphorylation enrichment [11] | phosphorylation enrichment [12] | phosphorylation enrichment [13] | SH2 binding enrichment [14] | SH2 binding enrichment [15] | SH2 binding enrichment [16]
SSEYHYVGGFY [CTSC_Y347] | 4.79 | 2.24 | 13.4 | 2.69 | 3.53 | 11.3 | 6.87 | 14.9 | 3.33 | 0.787 | 9.7 | 3.79 | 12.9 | 1.49 | 0.998 | 4.12
SSLEDYVRETN [GIMAP6_Y176_G171S] | 0.431 | 0.466 | 0.67 | 0.92 | 1.03 | 0.641 | 0.424 | 0.721 | 0.44 | 1.06 | 0.46 | 0.485 | 0.527 | 0.532 | 0.899 | 0.776
SSMIDYNLLEK [MYOC_Y479_P481L] | 0.518 | 0.417 | 0.526 | 0.968 | 0.855 | 0.698 | 0.434 | 0.685 | 0.409 | 0.954 | 0.455 | 0.482 | 0.563 | 0.723 | 0.822 | 0.692
SSPMKYQQNVS [EGFEM1P_Y160] | 0.412 | 0.392 | 0.334 | 0.623 | 0.541 | 0.408 | 0.398 | 0.562 | 0.397 | 0.592 | 0.319 | 0.339 | 0.352 | 0.432 | 0.878 | 0.661
SSTAMYSAPGR [PSMB1_Y8] | 2.28 | 0.857 | 0.45 | 0.58 | 0.75 | 0.464 | 1.66 | 6.02 | 0.631 | 0.524 | 0.497 | 0.484 | 0.674 | 1.08 | 0.774 | 0.557
STDDGYIDLQF [TMEM230_Y29] | 0.521 | 0.584 | 1.01 | 1.19 | 1.22 | 1.01 | 0.513 | 0.695 | 0.488 | 1.09 | 0.701 | 0.564 | 0.472 | 0.986 | 0.834 | 0.764
SVETPYGSVTF [NDRG2_Y47] | 2.16 | 5.24 | 0.397 | 0.606 | 0.82 | 0.53 | 0.52 | 0.635 | 4.56 | 0.928 | 0.501 | 5.93 | 0.438 | 0.427 | 0.809 | 0.527
SVICTYSPALN [TP53_Y126_T123I] | 0.523 | 0.651 | 0.61 | 1.03 | 1.36 | 0.779 | 0.438 | 0.97 | 0.58 | 1.44 | 0.59 | 0.546 | 0.673 | 0.448 | 0.838 | 0.731
SVTCTYSPALK [TP53_Y126_N131K] | 0.498 | 0.353 | 0.407 | 0.866 | 0.97 | 0.602 | 0.405 | 0.839 | 0.557 | 1.02 | 0.407 | 0.467 | 0.567 | 0.523 | 0.697 | 0.518
SVTCTYSPALT [TP53_Y126_N131T] | 0.694 | 0.706 | 0.524 | 1.6 | 1.75 | 0.908 | 0.432 | 1.2 | 0.741 | 1.76 | 0.872 | 0.446 | 0.615 | 0.436 | 0.666 | 0.474
SVTGTYSPALN [TP53_Y126_C124G] | 0.621 | 0.434 | 0.394 | 0.835 | 0.661 | 0.593 | 0.444 | 0.717 | 0.549 | 0.769 | 0.419 | 0.584 | 0.424 | 0.415 | 0.852 | 0.747
SVVVHYEPPEV [TP53_Y220_P219H] | 0.537 | 1.86 | 0.525 | 0.758 | 1.15 | 0.647 | 0.71 | 1.72 | 0.485 | 1.02 | 0.699 | 0.484 | 0.616 | 1.68 | 0.849 | 0.757
SVVVPYEPPEG [TP53_Y220_V225G] | 0.503 | 0.445 | 0.533 | 1.01 | 1.02 | 0.714 | 0.559 | 0.633 | 0.446 | 0.929 | 0.685 | 0.525 | 0.492 | 0.67 | 1.03 | 0.997
TDIVAYSGWVQ [SPTBN2_Y477_R480W] | 1.53 | 1.38 | 0.573 | 0.82 | 1.03 | 0.779 | 0.621 | 1.75 | 1.4 | 1.02 | 0.684 | 0.824 | 0.532 | 0.642 | 0.881 | 1.2
TDKLFYIFTPG [SLC27A4_Y243_S247P_YF] | 0.607 | 0.544 | 0.91 | 1.65 | 1.36 | 1.11 | 1.72 | 0.873 | 0.556 | 1.49 | 0.776 | 0.392 | 0.583 | 0.401 | 0.787 | 0.604
TDKLFYIYTPG [SLC27A4_Y243_S247P] | 0.498 | 0.494 | 0.728 | 1.68 | 1.25 | 0.853 | 1.46 | 0.673 | 0.592 | 1.34 | 0.683 | 0.422 | 0.502 | 0.383 | 0.684 | 1.12
TEALFYTDDTA [ADPRS_Y75_YF] | 0.602 | 0.557 | 0.535 | 1.17 | 1.26 | 0.754 | 0.541 | 0.787 | 0.634 | 1.44 | 0.643 | 0.568 | 0.614 | 0.615 | 0.739 | 0.675

Sequence | phosphorylation enrichment [1] | phosphorylation enrichment [2] | phosphorylation enrichment [3] | phosphorylation enrichment [4] | phosphorylation enrichment [5] | phosphorylation enrichment [6] | phosphorylation enrichment [7] | phosphorylation enrichment [8] | phosphorylation enrichment [9] | phosphorylation enrichment [10] | phosphorylation enrichment [11] | phosphorylation enrichment [12] | phosphorylation enrichment [13] | SH2 binding enrichment [14] | SH2 binding enrichment [15] | SH2 binding enrichment [16]
TENAGYYFRVS | 0.728 | 0.677 | 0.82 | 3.16 | 1.44 | 1.14 | 0.714 | 1.04 | 0.421 | 2.21 | 0.491 | 0.407 | 1.02 | 0.547 | 0.878 | 0.897
TFHNTYHSQMR [IL1RAPL1_Y615] | 0.434 | 0.466 | 0.458 | 0.849 | 0.631 | 0.489 | 0.402 | 0.612 | 0.5 | 0.567 | 0.33 | 0.471 | 0.411 | 0.682 | 0.872 | 0.597
TFVKSYTIHFS [F5_Y2153_M2148T_YF] | 0.424 | 0.521 | 0.517 | 1.28 | 1.04 | 0.899 | 0.434 | 0.873 | 0.447 | 1.29 | 0.599 | 0.468 | 0.468 | 0.537 | 0.97 | 0.729
TFWKKYCTFWK [CCDC70_Y125_R126C] | 0.38 | 0.364 | 0.438 | 0.844 | 0.966 | 0.619 | 0.402 | 0.752 | 0.395 | 0.794 | 0.381 | 0.381 | 0.425 | 0.517 | 1.1 | 0.594
TGDVQYRSSVR [FREM2_Y2158] | 0.357 | 0.385 | 0.468 | 0.408 | 0.529 | 0.397 | 0.398 | 0.459 | 0.357 | 0.534 | 0.292 | 0.331 | 0.423 | 0.433 | 1.02 | 0.631
TGEKLYQHKEF [ZNF283_Y627_R629H] | 0.495 | 0.436 | 0.418 | 0.599 | 0.62 | 0.528 | 0.397 | 0.665 | 0.417 | 0.679 | 0.45 | 0.39 | 0.402 | 0.419 | 0.818 | 0.695
TGILLYGLASR [QARS1_Y57] | 1.22 | 1.46 | 0.529 | 0.937 | 0.885 | 0.692 | 1.79 | 0.756 | 0.765 | 1.16 | 0.964 | 0.578 | 1.38 | 0.497 | 0.855 | 0.803
TGTQLYGRFGS [ITGA2B_Y384] | 7.54 | 0.389 | 0.451 | 0.608 | 0.619 | 0.513 | 0.732 | 0.404 | 7.68 | 0.654 | 0.351 | 10.6 | 0.498 | 0.418 | 0.779 | 0.569
THPFLYLSLEI [MLH1_Y293] | 0.516 | 0.478 | 0.622 | 1.4 | 1.13 | 0.827 | 0.385 | 0.817 | 0.363 | 1.52 | 0.628 | 0.383 | 0.648 | 0.682 | 1.19 | 0.74
THPFLYLTLEI [MLH1_Y293_S295T] | 0.556 | 0.778 | 0.652 | 1.97 | 1.71 | 1.23 | 0.524 | 1.22 | 0.548 | 2 | 0.889 | 0.473 | 0.889 | 0.623 | 0.873 | 0.688
THPFPYLSLEI [MLH1_Y293_L292P] | 0.475 | 0.39 | 0.657 | 1.09 | 0.909 | 0.677 | 0.414 | 0.715 | 0.554 | 0.978 | 0.502 | 0.295 | 0.474 | 2.05 | 1.04 | 0.752
TIQDAYMHITS [ADCY10_Y318_A313T] | 0.496 | 0.416 | 0.624 | 0.676 | 0.7 | 0.43 | 0.529 | 0.525 | 0.451 | 0.799 | 0.479 | 0.51 | 0.398 | 1.26 | 0.902 | 0.895
TIQIMFGCDVG [HLA-A_Y123_Y123F] | 0.619 | 0.749 | 0.645 | 1.42 | 1.28 | 1.14 | 0.503 | 1.01 | 0.548 | 1.86 | 0.905 | 0.545 | 0.801 | 0.515 | 0.861 | 0.84
TKDTFYKQRMF [GBA_Y451_P454R] | 0.339 | 0.416 | 0.41 | 0.404 | 0.56 | 0.391 | 0.372 | 0.458 | 0.351 | 0.579 | 0.359 | 0.344 | 0.406 | 0.396 | 0.83 | 0.68
TKEPKYGGAGS [KIAA1210_Y1615_E1616G] | 0.361 | 0.457 | 0.405 | 0.416 | 0.5 | 0.548 | 0.384 | 0.462 | 0.409 | 0.55 | 0.431 | 0.459 | 0.44 | 0.487 | 1.08 | 0.983
TKFRNYLIPKG [CYP2C8_Y379] | 0.429 | 0.345 | 0.381 | 0.592 | 0.47 | 0.425 | 0.374 | 0.573 | 0.443 | 0.565 | 0.374 | 0.365 | 0.421 | 0.631 | 1.1 | 0.92
